Source: patent US20110165161A1, “ANTI-EPCAM ANTIBODIES THAT INDUCE APOPTOSIS OF CANCER CELLS AND METHODS USING SAME” (priority 2009, published 2011)

T1: human EpCAM (CHO/EpCAM cells) (Homo sapiens, UniProt P16422)
T1 construct: full-length of human EpCAM (aa 1-314); expressed in transfected cells; host or cells: CHO (Chinese hamster ovary) cells
T1 sequence (P16422 24-314): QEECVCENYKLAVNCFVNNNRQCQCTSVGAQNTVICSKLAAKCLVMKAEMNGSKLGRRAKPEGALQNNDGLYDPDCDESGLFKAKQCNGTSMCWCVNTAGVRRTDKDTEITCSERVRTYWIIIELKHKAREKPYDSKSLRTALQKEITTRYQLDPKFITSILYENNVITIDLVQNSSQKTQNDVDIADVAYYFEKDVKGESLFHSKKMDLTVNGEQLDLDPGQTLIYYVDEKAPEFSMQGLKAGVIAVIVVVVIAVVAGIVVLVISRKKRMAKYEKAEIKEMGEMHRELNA

B1: 1G10: murine anti-human EpCAM monoclonal antibody (IgG1, K), hybridoma m290-1G10; VH SEQ ID NO:7, VL SEQ ID NO:9 (antibody, listed as Mus musculus, V domains shown)
VH: QIQLVQSGPELKKPGETVKISCKASGYTFTNYGMNWVKQAPGKGFKWMGWINTYTGEPTYADDFKGRFAFSLETSASTAYLQINNLQNEDMATYFCARWGYDFDYWGQGTTLTVSS
VL: QIVLTQSPAIMSSSPGEKVTMTCSASSSISYMNWYQQKPGTSPKRWIYDTSKLASGVPARFSGSGSGTSYSLTISSMEAEDAATYYCHQRSSYPYTFGGGTKLEIKR
B2: 1F10: murine anti-human EpCAM monoclonal antibody (IgG1, λ1), hybridoma m338-1F10.3; VH SEQ ID NO:11, VL SEQ ID NO:13 (antibody, listed as Mus musculus, V domains shown)
VH: EVKLLESGGGLVQPGGSLKLSCAASGFDFSRYWMSWVRQAPGKGLEWIGEINPDSSTMNYTPSLKDKFIISRDNAKNTLYLQMSKVRSEDTALYYCARGAYAMDYWGQGTSVTVSS
VL: QAVVTQESALTTSPGETVTLTCRSSTGAVTTSNNANWVQEKPDHLFTGLIGATNNRAPGVPARFSGSLIGDKAALTITGAQTEDEAIYFCALWYINHWVFGGGTKLTVLG

What was measured:
[1] = test system: Lung cancer NCI-H520 cells; experiment: Antibody cytotoxicity assay (Annexin V + PI), NCI-H520; type: cell-based; details: for Induction of cell death (in words): 1, 3 and 10 μg/ml, overnight; for Cytotoxic effect (Annexin V + PI staining, dead cells): 17-20 hr
Protocol: (§1) After a 17-20 hr incubation at 37° C., cells were stained with 0.3 μl of FITC-conjugated Annexin V (Strong Biotech Corp. Cat. No. AVK250) in 50 μl Annexin V binding buffer (Strong Biotech Corp. Cat. No. AVK250) at RT for 20 min. After wash, the cells were then stained with 0.3 μl of propidium iodide in 200 μl Annexin V binding buffer. Annexin V and Propidium Iodide were used as a joint indicator for cell death. The data were acquired with BD FACSCalibur based on an acquisition of 3,000-5,000 cells and analyzed with the Cell Quest software. The combined percentages of the Annexin V+/PI+, Annexin V+/PI− and Annexin V−/PI+populations were considered as dead cells.

[2] = test system: COLO 205 colon cancer cells; experiment: Cytotoxicity of anti-EpCAM antibodies in combination with oxaliplatin in COLO 205; type: cell-based, human; details: 24 hr
Protocol: Oxaliplatin, combined with infusional administration of 2 other chemotherapy drugs, 5-fluorouracil/leucovorin (5-FU/LV), is now considered as one of the as first-line treatments for people with advanced carcinoma of the colon or rectum (André et al. (2004) N Engl J Med 350(23):2343-2351). To test the cytotoxicity of anti-EpCAM antibodies in the presence of oxaliplatin, 1×10^5 COLO 205 cells were seeded to each well of a 96-well plate, and then 0.03, 0.3 and 3 μg/ml of anti-EpCAM or control (9E10) mAbs in combination with oxaliplatin at concentration of 0, 0.01, 0.1, and 1 μg/ml diluted in the medium were added into the cells. After a 24-hr incubation at 37° C., the cells were stained with 0.3 μl of FITC-conjugated Annexin V (Strong Biotech Corp. Cat. No. AVK250) in 50 μl Annexin V binding buffer (Strong Biotech Corp. Cat. No. AVK250) at RT for 20 min. After wash, the cells were then stained with 0.3 μl of propidium iodide in 200 μl Annexin V binding buffer. Annexin V and Propidium Iodide were used as a joint indicator for measuring cell death. The data were acquired with BD FACSCalibur based on an acquisition of 3,000-5,000 cells and analyzed with the Cell Quest software. The combined percentages of the Annexin V+/PI+, Annexin V+/PI− and Annexin V−/PI+populations were considered as dead cells.

[3] = test system: Prostate cancer LNCaP cells; experiment: Antibody cytotoxicity assay (Annexin V + PI), LNCaP; type: cell-based; details: for Induction of cell death (in words): 1, 3 and 10 μg/ml, overnight; for Cytotoxic effect (Annexin V + PI staining, dead cells): 17-20 hr
Protocol: as §1

[4] = test system: Ovarian cancer NIH:OVCAR-3 cells; experiment: Antibody cytotoxicity assay (Annexin V + PI), NIH:OVCAR-3; type: cell-based; details: for Induction of cell death (in words): 1, 3 and 10 μg/ml, overnight; for Cytotoxic effect (Annexin V + PI staining, dead cells): 17-20 hr
Protocol: as §1

[5] = target: T1, human EpCAM (CHO/EpCAM cells); experiment: FACS binding of anti-EpCAM antibodies to CHO/EpCAM cells; details: antibody 0.1 μg/ml; HPS at 300x dilution
Protocol: The cDNAs encoding full-length of human EpCAM (aa 1-314) were amplified by PCR from the cDNA pool generated from T-47D cells and cloned into the modified pcDNA 3.1/Myc-His(+) A vector (Invitrogen), followed by transfecting into Chinese hamster ovary (CHO) cells at 80-90% confluence in 6-well culture dishes, using Lipofectamine 2000 (Invitrogen, Cat. No. 11668-500). Transfectants were selected in F12/10% FBS medium containing 600 ug/ml Hygromycin B (C.A. IN-10687-010). Transfected cells expressing hEpCAM were identified by flow cytometry with anti-EpCAM antibodies.
(§2) 1×10^5 CHO/EpCAM or CHO parental cells were seeded in each well of a v-bottomed 96-well plate and incubated with purified anti-EpCAM antibodies or mouse IgG control antibody 9E10 at concentration of 0.1 μg/ml. A 300× dilution of human cell hyper-immune serum (HPS 300×) was used as binding positive control for both cell lines here. After 1 hr incubation at 4° C., cells were washed twice with 200 μl FACS buffer (1×PBS containing 1% FBS), stained with 100 μl of 1 μg/ml goat-anti-mouse IgG-PE (Southern Biotech, Cat. No. 1032-09) in FACS buffer and then incubated at 4° C. for 30 min. Cells were washed thrice with FACS buffer and analyzed by flow cytometry (BD LSR, BD Life Sciences).

CHO parental cells = experiment: FACS binding of anti-EpCAM antibodies to CHO parental cells; parameters: species or system Chinese hamster; details: antibody 0.1 μg/ml; HPS at 300x dilution
Protocol: as §2

[6] = test system: Colorectal cancer DLD-1 cells; experiment: Antibody cytotoxicity assay (Annexin V + PI), DLD-1; type: cell-based; details: for Induction of cell death (in words): 1, 3 and 10 μg/ml, overnight; for Cytotoxic effect (Annexin V + PI staining, dead cells): 17-20 hr
Protocol: as §1

[7] = test system: Gastric cancer NCI-N87 cells; experiment: Antibody cytotoxicity assay (Annexin V + PI), NCI-N87; type: cell-based; details: for Induction of cell death (in words): 1, 3 and 10 μg/ml, overnight; for Cytotoxic effect (Annexin V + PI staining, dead cells): 17-20 hr
Protocol: as §1

[8] = test system: Breast cancer T-47D cells; experiment: Antibody cytotoxicity assay (Annexin V + PI), T-47D; type: cell-based; details: for Induction of cell death (in words): 1, 3 and 10 μg/ml, overnight; for Cytotoxic effect (Annexin V + PI staining, dead cells): 17-20 hr
Protocol: as §1

[9] = mAb 0.03 μg/ml, oxaliplatin 0 μg/ml
[10] = mAb 0.3 μg/ml + oxaliplatin 1 μg/ml
[11] = mAb 0.3 μg/ml, oxaliplatin 0 μg/ml
[12] = mAb 3 μg/ml + oxaliplatin 0.01 μg/ml
[13] = mAb 3 μg/ml + oxaliplatin 1 μg/ml
[14] = mAb 3 μg/ml, oxaliplatin 0 μg/ml

Molecule	Induction of cell death (in words) [1]	Cytotoxic effect (Annexin V + PI staining, dead cells) ([1]; mAb 1.0 μg/ml)	Cytotoxic effect (Annexin V + PI staining, dead cells) ([1]; mAb 3.0 μg/ml)	Cytotoxic effect (Annexin V + PI staining, dead cells) ([1]; mAb 10 μg/ml)	% of Annexin V + PI staining (untreated background subtracted) [2, 9]	% of Annexin V + PI staining (untreated background subtracted) [2, 10]	% of Annexin V + PI staining (untreated background subtracted) [2, 11]	% of Annexin V + PI staining (untreated background subtracted) [2, 12]	% of Annexin V + PI staining (untreated background subtracted) [2, 13]	% of Annexin V + PI staining (untreated background subtracted) [2, 14]	Induction of cell death (in words) [3]	Cytotoxic effect (Annexin V + PI staining, dead cells) ([3]; mAb 1.0 μg/ml)	Cytotoxic effect (Annexin V + PI staining, dead cells) ([3]; mAb 3.0 μg/ml)	Cytotoxic effect (Annexin V + PI staining, dead cells) ([3]; mAb 10 μg/ml)	Induction of cell death (in words) [4]	Cytotoxic effect (Annexin V + PI staining, dead cells) ([4]; mAb 1.0 μg/ml)	Cytotoxic effect (Annexin V + PI staining, dead cells) ([4]; mAb 3.0 μg/ml)	Cytotoxic effect (Annexin V + PI staining, dead cells) ([4]; mAb 10 μg/ml)	Binding (FACS, Mean fluorescence intensity (MFI)) CHO/EpCAM [5]	Binding (FACS, Mean fluorescence intensity (MFI)) CHO (CHO parental cells)	also measured
B1	substantial cell death	32%	41%	55%	2%	10%	5%	38%	54%	46%	substantial cell death	42%	55%	45%	substantial cell death	40%	50%	52%	6178	5	% of Annexin V + PI staining (untreated background subtracted) ([2]; mAb 0.03 μg/ml + oxaliplatin 0.1 μg/ml): 2%; % of Annexin V + PI staining (untreated background subtracted) ([2]; mAb 0.3 μg/ml + oxaliplatin 0.01 μg/ml): 4%; % of Annexin V + PI staining (untreated background subtracted) ([2]; mAb 0.3 μg/ml + oxaliplatin 0.1 μg/ml): 5%; Induction of cell death (in words) [6]: substantial cell death; Cytotoxic effect (Annexin V + PI staining, dead cells) ([6]; mAb 1.0 μg/ml): 28%; Cytotoxic effect (Annexin V + PI staining, dead cells) ([6]; mAb 3.0 μg/ml): 40%; Cytotoxic effect (Annexin V + PI staining, dead cells) ([6]; mAb 10 μg/ml): 60%; Induction of cell death (in words) [7]: substantial cell death; Cytotoxic effect (Annexin V + PI staining, dead cells) ([7]; mAb 1.0 μg/ml): 50%; Cytotoxic effect (Annexin V + PI staining, dead cells) ([7]; mAb 3.0 μg/ml): 60%; Cytotoxic effect (Annexin V + PI staining, dead cells) ([7]; mAb 10 μg/ml): 60%; Induction of cell death (in words) [8]: substantial cell death; Cytotoxic effect (Annexin V + PI staining, dead cells) ([8]; mAb 1.0 μg/ml): 45%; Cytotoxic effect (Annexin V + PI staining, dead cells) ([8]; mAb 3.0 μg/ml): 58%; Cytotoxic effect (Annexin V + PI staining, dead cells) ([8]; mAb 10 μg/ml): 64%
B2	substantial cell death	40%	46%	57%	−1%	22%	6%	52%	61%	54%	substantial cell death	47%	53%	48%	substantial cell death	53%	57%	59%	5634	6	% of Annexin V + PI staining (untreated background subtracted) ([2]; mAb 0.03 μg/ml + oxaliplatin 0.01 μg/ml): −1%; % of Annexin V + PI staining (untreated background subtracted) ([2]; mAb 0.03 μg/ml + oxaliplatin 1 μg/ml): 5%; % of Annexin V + PI staining (untreated background subtracted) ([2]; mAb 3 μg/ml + oxaliplatin 0.1 μg/ml): 57%; Induction of cell death (in words) [6]: substantial cell death; Cytotoxic effect (Annexin V + PI staining, dead cells) ([6]; mAb 1.0 μg/ml): 65%; Cytotoxic effect (Annexin V + PI staining, dead cells) ([6]; mAb 3.0 μg/ml): 65%; Cytotoxic effect (Annexin V + PI staining, dead cells) ([6]; mAb 10 μg/ml): 61%; Induction of cell death (in words) [7]: substantial cell death; Cytotoxic effect (Annexin V + PI staining, dead cells) ([7]; mAb 1.0 μg/ml): 57%; Cytotoxic effect (Annexin V + PI staining, dead cells) ([7]; mAb 3.0 μg/ml): 57%; Cytotoxic effect (Annexin V + PI staining, dead cells) ([7]; mAb 10 μg/ml): 57%; Induction of cell death (in words) [8]: substantial cell death; Cytotoxic effect (Annexin V + PI staining, dead cells) ([8]; mAb 1.0 μg/ml): 51%; Cytotoxic effect (Annexin V + PI staining, dead cells) ([8]; mAb 3.0 μg/ml): 50%; Cytotoxic effect (Annexin V + PI staining, dead cells) ([8]; mAb 10 μg/ml): 50%
